Data on four substances can be found in US20240218041A1, “MOLECULAR DESIGN OF GLUCOSE SENSORS IN GLUCOSE-RESPONSIVE INSULIN ANALOGUES” (THE TRUSTEES OF INDIANA UNIVERSITY, priority 2021, published 2024).

For test [1], the system named is IR autophosphorylation and downstream p-AKT/AKT, p-FOXO1/FOXO1, p-GSK-3/GSK-3. As to the kind of experiment: Western blot signaling assays in HepG2 cells. The class given is cell-based, human. Background: Immunoblotting shows a protein as a band on a membrane.
Experimental: Signal propagation was probed via a cytoplasmic kinase cascade and changes in metabolic gene expression in HepG2 cells. […] An overview of IR autophosphorylation (probed by anti-pTyr IR antibodies) and downstream phosphorylation of Ser-Thr protein kinase AKT (protein kinase B; ratio p-AKT/AKT), forkhead transcription factor 1 (p-FOXO1/FOXO1), and glycogen synthase kinase-3 (p-GSK-3/GSK-3) at a single hormone dose (50 nM) was provided by Western blot (WB).
Signaling assays in a mammalian cell line. HepG2 cell line (ATCC) were cultured in DMEM with 10% FBS, 1% penicillin/streptomycin per vendor's instruction. After 70-75% cell confluence, cells were serum-starved for 24 h and then exposed to medium containing an insulin analogue (each at a protein concentration of 50 nM). After lysis in RIPA buffer (containing protease- and phosphatase-inhibitor cocktails; Roche), the total protein concentrations in the lysate was determined by BCA assay (Thermo). […] Briefly, for p-IR/IR blotting, samples were probed by insulin receptor β (4B8) antibody (CST antibodies unless otherwise stated) or an equal mixture of anti-phospho-insulin receptor β (Tyr1150/1151); phospho-insulin receptor (Tyr1158) antibody (Thermo); phospho-insulin receptor (Tyr1334) antibody (Thermo); phospho-insulin receptor β (Tyr1345) monoclonal antiserum; and anti-phospho-insulin receptor (phospho-Tyr972) antibody (Abcam). […]
The target of test [2] is insulin receptor (Homo sapiens, UniProt P06213). Nature of the test: In-cell pIR immunoblotting (pIR/IR phosphorylation, 96-well plate assay) in HepG2 cells. Also on record: endogenous in cells; host or cells: HepG2 (human hepatocellular carcinoma; ATCC). As to conditions: for glucose-dependent activity in HepG2 cells in culture: as described in Chen, Y.-S., et al. (2021); for monosaccharide dependence of biological activity (pIR/IR phosphorylation): ±50 mM glucose or ±50 mM fructose. The class given is cell-based.
Experimental: After starvation, cells were treated in parallel with a set of insulin analogues in serum-free medium.
In-cell pIR immunoblotting. This cell-based assay probed insulin-dependent IR activation via fluorescent readouts. HepG2 cells were seeded (˜8000 cells/well) into a 96-well black plate with clear bottom and cultured (Fisher). After serum starvation in 100 μl plain Hanks' Balanced Salt Solution (HBSS) for 2 h at 37° C., serial analogue dilutions (100 μl) were applied to each well; cells were then incubated for 20 min at 37° C. After removing medium, 150 μl of 3.7% formaldehyde (Fisher) was added to each well, and plates incubated for 20 min at 37° C. 200 μl of 0.1% Triton-X-100 (Sigma) was then added to permeabilize the cells, followed by their fixation by 100-μl Odyssey Blocking Buffer (LI-COR). A blocking procedure was applied for 1 h at room temperature on an orbital shaker. Fixed cells were then exposed to the primary antibody (10 μL anti-pTyr 4G10 (Sigma) into 20 ml Blocking Buffer) overnight at 4° C. The secondary antibody (anti-mouse-IgG-800-CW antibody (Sigma) in 25 ml Blocking Buffer) was added after a wash. pTyr was detected via 800 nm emission. DRAQ5 (Fisher) was also applied to enable measurement of cell number via 700 nm emission. The fluorescence signals were detected on a LI-COR Infrared Imaging system (Odyssey) under settings as follows: offset 4 mm with setting “Intensity-Auto.”

Test [3] has as its system PEPCK, ChREBP and SREBP gene expression in HepG2 cells. As to the kind of experiment: Real-time qPCR assays of metabolic gene regulation in HepG2 cells. The format is cell-based, human. In general terms: In qPCR the cycle at which signal appears reflects the starting amount.
Experimental: Cell culture. Human hepatocellular carcinoma cell line HepG2 was cultured in Dulbecco's Modified Eagle Medium (DMEM), supplemented with 10% fetal bovine serum (FBS), 1% penicillin/streptomycin as recommended by the American Type Culture Collection. A protocol employing 24-h serum starvation wherein FBS was applied at 70-75% confluence. After starvation, cells were treated in parallel with a set of insulin analogues in serum-free medium.
Real-time qPCR assays. Following serum starvation, HepG2 cells were treated with medium containing an insulin analogue (50 nM) for 8 h. In studies related to possible glucose responsiveness and lipid metabolism, the cells were treated with analogues for 3 or 4 h in media containing either low or normal glucose concentrations. Readouts were provided by downregulation of PEPCK and G6P and upregulation of ChREBP and SREBP. mRNA (messenger ribonucleic acid) abundances were measured in triplicate by quantitative polymerase chain reaction (qPCR). Samples were prepared as described by the vendor (One-Step rt-PCR reagent kits; Bio-Rad).
For test [4] the following is noted: in vivo; cited from earlier work.

On to “FRI: insulin lispro with meta-fluoro-PBA on the α-amino group of GlyA1, 3,4-dihydroxybenzoic acid on LysB28, and HisA8”, for which the signaling activity result in test [1] (in the absence of fructose, 50 nM) is given as “low”. Besides, the “fructose dependence of signaling (IR autophosphorylation, p-AKT/AKT, p-FOXO1/FOXO1, p-GSK-3/GSK-3)” value in test [1] (single hormone dose 50 nM, HepG2 cells) was “fructose-dependent signaling”. For the same substance, in test [2] (addition of 50 mM glucose), the “effect of glucose on IR autophosphorylation activity” value is “did not influence its activity”. For the same substance, the “IR autophosphorylation activity relative to KP” value in test [2] (in 50 mM fructose) is recorded as “almost as active as KP”. For the same substance, in test [2] (in the absence of fructose), the “baseline IR autophosphorylation activity” value is given as “low”. Further, the IR autophosphorylation signal entry in test [2] (on addition of 50 mM fructose) is reported as “robust signal”. In test [3] (activated by fructose, hypoglycemic conditions, HepG2), the “regulation of PEPCK gene expression” value is given as “regulated downstream expression”. Moreover, the “regulation of ChREBP and SREBP genes” value in test [3] (activated by fructose, normoglycemic conditions, HepG2) is given as “regulated the genes”. Also, in test [3] (addition of glucose instead of fructose), the “effect of glucose on metabolic gene regulation” value was “no effects”.
As for “GlyA0, D-Cys(GBE1-C)A1, SecA6, SecA11, Lys(DHBA)B28-lispro [GRI-3]”, in test [2], the “glucose-dependent activity in HepG2 cells in culture” value is “glucose-dependent activity”. For the same substance, in test [2] (HepG2 cells), the “monosaccharide dependence of biological activity (pIR/IR phosphorylation)” value is reported as “monosaccharide-dependent biological activity”. The “glucose dependence of pIR/IR phosphorylation” value in test [2] (±50 mM glucose, HepG2 cells) is recorded as “glucose-dependent IR phosphorylation”. Further, in test [3] (PEPCK, ChREBP and SREBP, HepG2 cells in culture), the glucose-dependent gene regulation result is “glucose-dependent gene regulation”.
Consider “GlyA−1, Cys(GBE1-C)A0, SecA6, SecA11, Lys(DHBA)B28-lispro [GRI-4]”, for which, in test [2], the “glucose-dependent activity in HepG2 cells in culture” value is recorded as “glucose-dependent activity”. In addition, the “monosaccharide dependence of biological activity (pIR/IR phosphorylation)” value in test [2] (HepG2 cells) is on record as “monosaccharide-dependent biological activity”.
Turning to insulin detemir, the “per molecule activity relative to human insulin” value in test [4] is recorded as “fourfold reduced”.
